# Measurements published in US20260231968A1, “AN ECO-FRIENDLY, SUSTAINABLE FOOD PRESERVATIVE” (priority 2023, published 2026).
# B1: psoriasin: Recombinant human psoriasin (S100a7) containing a histidine tag, amino acid sequence SEQ ID NO: 11, expression vector pET-28a (protein, listed as Homo sapiens)
# chain: MSNTQAERSIIGMIDMFHKYTRRDDKIEKPSLLTMMKENFPNFLSACDKKGTNYLADVFEKKDKNEDKKIDFSEFLSLLGDIATDYHKQSHGAAPCSGGSQ
# Experiments:
# Aspergillus flavus = experiment: Dose-response growth assay in 96 well plates, A. flavus in RPMI-MOPS; type: cell-based; conditions: A. flavus, 5,000 spores, absorbance 600 nm
# Protocol: A. flavus A11 spores were seeded on 10 cm plates of YAG-agarose for 3-4 days in a humidified incubator at 30° C. After sporulation, fresh spores were collected with 5 ml DDW+0.2% Tween. Spores were then centrifuged at room temperatures (5 min, 4,000 RPM), and suspended in 5 ml DDW. The suspension was termed “A. flavus fresh stock”.
# A. flavus fresh stock was diluted ×1000 using DDW, and the spores were counted using a cytometer to determine the stock spores' concentration. A. flavus fresh stock was used for one week after spore production before disposal.
# RPMI-MOPS (RPMI Powder, 165 mM MOPS, and Pen/Strep solution (x100)) was inoculated with either 50,000 spores/ml of A. flavus, or 1 colony/10 ml of C. albicans. The inoculated RPMI-MOPS was poured into a Nunclone™ coated 96-well plate (100 μl per well), with the different treatments and controls. The 96-well plate was then incubated in a shaker/incubator plate-reader at 30° C. where the absorbance (600 nm) was monitored and measured every 10 minutes.
# In order to evaluate the ability of recombinant His-psoriasin to inhibit the growth of Aspergillus flavus, 5,000 spores were incubated in a RPMI-MPS medium with variable concentrations of psoriasin added to each well. Fungi growth was monitored using an absorbance plate reader every 10 minutes at 600 nm.
# C. albicans = experiment: Fungal growth in natural apple and beetroot juice; type: cell-based, Candida albicans; conditions: pH=7, 40 μM and 400 μM
# Protocol: Natural beetroot and apple juice without preservatives, was diluted ×0.5 with PBS×1 to avoid high background absorbance. The juice was titrated to pH=7.4 with 1M NaOH, inoculated with C. albicans (1 colony/10 ml), treated with 40 μM and 400 μM His-psoriasin, and monitored with the same measuring program as the RPMI-MOPS experiments. In order to evaluate the effect of His-psoriasin on fungal growth in juice, natural apple and beetroot juices were inoculated without any preservatives with C. albicans. The samples were titrated to pH=7 and treated with 40 μM and 400 μM of recombinant His-psoriasin. The samples were placed in a 96 well-plate and absorbance at 600 nm was monitored vs. time.
# [1] = system: microbial load of plant-based ground meat (soy protein); experiment: Microbial load of plant-based ground meat (soy protein) with psoriasin and/or nisin; type: cell-based; conditions: 0.65% w/w His-psoriasin; 1.5 mg nisin; 5 g soy protein in 7.5 ml PBS
# Protocol: The ability of psoriasin to inhibit bacterial and fungal growth, with and without nisin was evaluated. Commercial plant-based ground meat (soy protein) was divided into 4 groups, each containing 5 grams of soy protein. The sample designated as “non-treated” contained 5 g of soy protein in 7.5 ml of PBS×1. The sample designated as “psoriasin” contained 5 g of soy protein in 7.5 ml of PBS×1 with 0.65% w/w of His-psoriasin. The sample designated as “nisin” contained 5 g of soy protein in 7.5 ml PBS×1 with 1.5 mg of nisin. The combined treatment group (“psoriasin+nisin”) contained 5 g of soy protein with both his-psoriasin and nisin at the same concentrations. The samples were incubated in […], and the microbial load was evaluated by seeding the different test groups on LB-agarose plates containing no antibiotics or on YAG-agarose plates with the antibiotics.
molecule,measurement,setting,value
B1,psoriasin concentration above which no apparent growth was measured,Aspergillus flavus,higher than 375 nM
same,fungal proliferation in juice,C. albicans,not able to proliferate
same,total microbial count on LB-agarose plates containing no antibiotics,[1],inhibited microbial growth
same,total yeast/mold count on YAG plates with antibiotics,[1],inhibited fungal/yeast growth
